# Assay results published in US20120128584A1 (ONCOTHERAPY SCIENCE, published 2012).
# B1: Anti-CDH3 mouse monoclonal antibody produced by hybridoma clone #6 (antibody, V domains shown)
# VH: QVQLQQPGAELVKPGTSVKLSCKSSGYTFTSYWIHWVKQRPGHGLEWIGEIDPSDNYTYYNQNFKGKATLTIDKSSSTAYMQLNSLTSEDSAVFYCARSGYGNLFVYWGQGTLVTVSA
# VL: QIVLTQSPAIMSSSPGEKVTMSCSATSSVTYMYWYQQKPGSSPKPWIFRTSNLASGVPTRFSGSGSGTSYSLTISSMEAEDAATYYCQHYHIYPRTFGGGTKL
# notes: The VL as printed ends at 'TKL'
# Target: T1, placental cadherin (P-cadherin; CDH3) (human, UniProt P22223 108-829)
# T1 construct: Native CDH3 on the surface of the cancer cell lines H358 and KLM-1; also called native CDH3 protein; CDH3 antigen
# T1 sequence (P22223 108-829 limits assumed): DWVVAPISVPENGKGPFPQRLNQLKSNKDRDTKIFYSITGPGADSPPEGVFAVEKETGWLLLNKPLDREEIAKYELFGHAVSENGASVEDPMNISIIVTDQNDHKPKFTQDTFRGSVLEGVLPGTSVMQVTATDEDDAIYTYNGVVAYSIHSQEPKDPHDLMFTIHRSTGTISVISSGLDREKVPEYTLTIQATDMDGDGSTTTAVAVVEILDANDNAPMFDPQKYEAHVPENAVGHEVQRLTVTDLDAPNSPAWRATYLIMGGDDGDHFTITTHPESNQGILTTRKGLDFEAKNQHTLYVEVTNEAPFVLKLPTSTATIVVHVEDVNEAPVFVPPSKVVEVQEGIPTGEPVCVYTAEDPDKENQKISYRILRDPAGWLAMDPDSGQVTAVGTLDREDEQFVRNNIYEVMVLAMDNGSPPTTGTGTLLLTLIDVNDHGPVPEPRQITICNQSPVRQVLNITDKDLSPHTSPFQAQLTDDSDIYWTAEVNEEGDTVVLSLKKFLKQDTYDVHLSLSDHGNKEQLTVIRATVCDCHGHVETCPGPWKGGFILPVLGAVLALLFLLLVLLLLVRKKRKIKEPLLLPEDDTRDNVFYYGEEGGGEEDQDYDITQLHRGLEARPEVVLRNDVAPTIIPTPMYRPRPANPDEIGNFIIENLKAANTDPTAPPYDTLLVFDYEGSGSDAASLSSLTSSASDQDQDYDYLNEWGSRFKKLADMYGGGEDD
# Assay: hybridoma screening on cancer cells carrying native CDH3
# Excerpt: CDH3 gene encoded extracellular domain (SEQ ID NO: 3) was amplified from cDNA pool derived from cancer cells. The product was cloned into the pcDNA3.1 (Invitrogen, CA). To produce CDH3-specific antibody, mice were immunized subcutaneously with the domain expression vector (17.5 mcg/injection) every two weeks for a month. After the confirmation of the titer of antisera, spleenocytes were extracted from the mice and fused to myeloma cells to prepare hybridomas. We screened the hybridomas which can recognize native CDH3 antigen on the surface of the cancer cells. […] The hybridoma clone #6 was used to inject intraperitoneally into mice. The ascites was recovered after 2 to 3 weeks. Finally antibody was purified from the ascites using Protein A column (GE Healthcare, NJ).
binder,measurement,value
B1,binding result,binds
